Substitutions are numbered along the chain they refer to.
T1: IL-17F (Homo sapiens, UniProt Q96PD4 Q96PD4:31-163)
T1 sequence: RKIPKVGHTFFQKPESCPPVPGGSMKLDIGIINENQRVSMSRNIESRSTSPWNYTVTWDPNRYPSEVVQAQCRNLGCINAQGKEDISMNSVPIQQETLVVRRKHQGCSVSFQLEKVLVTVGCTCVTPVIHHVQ

T2: IL-17 (IL-17A) (Homo sapiens, UniProt Q16552 Q16552:24-155)
T2 sequence: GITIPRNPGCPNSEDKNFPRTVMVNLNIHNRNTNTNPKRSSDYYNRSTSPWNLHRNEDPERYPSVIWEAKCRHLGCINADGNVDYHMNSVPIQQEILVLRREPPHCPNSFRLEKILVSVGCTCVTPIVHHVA

B1: SEQ 36 (ssRNA)
RNA: GGGAGCAGGAGAGAGGUCAGAUGUAUAGCGAAGUCAUUGAGCGACAAAGCCGGCCUAUGCGUGCUAGUGUGA
modifications: 2'-F pyrimidines
B2: SEQ 3 (ssRNA)
RNA: GGGAGCAGGAGAGAGGUCAGAUGUGUAAGGUCGGAAGUCAUGAACGGCCCGGACCUAUGCGUGCUAGUGUGA
modifications: 2'-F pyrimidines
B3: SEQ 1 (Apt1) (ssRNA)
RNA: GGGAGCAGGAGAGAGGUCAGAUGGGCAGCAGAGGAUAGCGAAGUCAUUGAGCGCCUAUGCGUGCUAGUGUGA
modifications: 2'-F pyrimidines
B4: SEQ 2 (ssRNA)
RNA: B3 RNA with G25U, C26G, A27C, G28A, G31U, A32G
modifications: 2'-F pyrimidines
B5: SEQ 32 (ssRNA)
RNA: B3 RNA with A30G, A37G, A50G, A66G, U70G, G71A, A72G
modifications: 2'-F pyrimidines
B6: SEQ 5 (ssRNA)
RNA: B3 RNA with G24A, A27G, G28C, G31U, A35G, C39A, U44C, G51U, G53A
modifications: 2'-F pyrimidines
B7: SEQ 31 (ssRNA)
RNA: GGGAGCAGGAGAGAGGUCAGAUGGAAGUGGAGUCAGAUAUAGCAAUAUUAUGACCUAUGCGUGCUAGUGUGA
modifications: 2'-F pyrimidines
B8: SEQ 6 (ssRNA)
RNA: GGGAGCAGGAGAGAGGUCAGAUGGUGAUGCAUAGGAGUGGAGUCAGAUAUAGCCCUAUGCGUGCUAGUGUGA
modifications: 2'-F pyrimidines
B9: SEQ 4 (ssRNA)
RNA: GGGAGCAGGAGAGAGGUCAGAUGCUAUAGCGAAGUCAUUGAGCGAGACAUAGGCCUAUGCGUGCUAGUGUGA
modifications: 2'-F pyrimidines
B10: SEQ 29 (ssRNA)
RNA: B9 RNA with U25G, A45C, A47U, C48G, A49U, U50C, A51C, G52A, G53A
modifications: 2'-F pyrimidines
B11: SEQ 30 (ssRNA)
RNA: GGGAGCAGGAGAGAGGUCAGAUGGUCUAGCCGGAGGAGUCAGUAAUCGGUAGACCUAUGCGUGCUAGUGUGA
modifications: 2'-F pyrimidines
B12: SEQ 33 (ssRNA)
RNA: GGGAGCAGGAGAGAGGUCAGAUGGAGGAGCCAGUGAUCGUUGACCUCAAUGCACCUAUGCGUGCUAGUGUGA
modifications: 2'-F pyrimidines
B13: SEQ 34 (ssRNA)
RNA: B12 RNA with C30A, U46C, C47A, A48C, A49C, U50G, C52G, A53U
modifications: 2'-F pyrimidines
B14: SEQ 35 (ssRNA)
RNA: B12 RNA with C30G, G35A, C45U, U46G, C47G, A48U, U50A, G51A, A53C
modifications: 2'-F pyrimidines
B15: SEQ 37 (ssRNA)
RNA: CAGAUGGGCAGCAGAGGAUAGCGAAGUCAUUGAGCGCCUAUGCGUGCUAGUGUG
modifications: 2'-F pyrimidines
B16: SEQ 43 (ssRNA)
RNA: AGAGGUCAGAUGGUCUAGCCGGAGGAGUCAGUAAUCGGUAGACCUAUGCGUG
modifications: 2'-F pyrimidines

target: T1, IL-17F; test: SPR; tRNA added; conditions: tags: R&D Systems 1335-INS/CF; chain copies: 2
Description: (§1) The binding activities for IL-17 of the nucleic acids shown by SEQ ID NOS:1-6 and 29-36 were evaluated by the surface plasmon resonance method. The measurements were taken using BIAcore 2000. The SA chip was used as the sensor chip, which had streptavidin immobilized thereon. Bound thereto was about 600 RU of a 16-nucleotide Poly dT with biotin bound to the 5′ end thereof. […] 20 μl, of human IL-17 for analyte, prepared at 0.5 was injected, with the addition of 0.1 mg/mL tRNA to lessen nonspecific adsorption. Solution A was used as a running buffer. […] Here, 30N refers to the nucleic acid pool used for the first round of SELEX, comprising a 30-nucleotide random sequence. As an example, a sensorgram showing a status of the binding of the aptamer shown by SEQ ID NO:1 (Apt1) and human IL-17 is shown in FIG. 7. From the above, it was shown that the nucleic acids shown by SEQ ID NOS:1-6 and 29-36 are aptamers that bind to IL-17.
Whether the IL-17 aptamers shown by SEQ ID NOS:1-6 and 29-36 bind to IL-17F, which belongs to the same family, was determined by the surface plasmon resonance method. The amino acid sequence homology between IL-17 and IL-17F is 50%. The experiment was performed using IL-17F produced by R&D Company (1335-INS/CF), while in a state wherein tRNA was added to lessen nonspecific adsorption as described above.

Binding result, no binding:
B1
B2
B3
B4
B5
B6
B7
B8
B9
B10
B11
B12
B13
B14

target: T2, IL-17 (IL-17A); test: SPR; 3' A16-tailed RNA on dT16 SA chip; solution A pH 7.6, Ca/Mg, 0.1 mg/mL tRNA; conditions: tags: Peprotech; chain copies: 2
Description: as §1

Binding result, binds:
B3

target: T2, IL-17 (IL-17A); test: SPR; conditions: tags: Peprotech; chain copies: 2

Binding result, binds:
GGAUAGCGAAGUCAUCGAGCGCC (ssRNA, 2'-F pyrimidines) [SEQ 45]
GGAUAGCGAAGUCAUUGAGCGCC (ssRNA, 2'-F pyrimidines; 2'-OMe at a3) [SEQ 40-2]
GGAUAGAGAAGUCAUUGAGCGCC (ssRNA, 2'-F pyrimidines; 2'-OMe at a7) [SEQ 47]
GGAUAGCGAAGUCAUUGAGCGCC (ssRNA, 2'-F pyrimidines except c7; 2'-OMe at c7) [SEQ 40-3]
GGAUAGCGAAGUCAUUGAGCGCC (ssRNA, 2'-F pyrimidines; 2'-OMe at g19) [SEQ 40-4]
GGAUAGCGAAGUCAUUGAGCACC (ssRNA, 2'-F pyrimidines) [SEQ 46]
GGAUAGCGAAGACAUUGAGCGCC (ssRNA, 2'-F pyrimidines; 2'-OMe at a12) [SEQ 48]

target: T2, IL-17 (IL-17A); test: SPR; same as Example 1; conditions: tags: Peprotech; chain copies: 2

Binding result, binds:
GGAUAGCGAAGUCAUUGAGCGCC (ssRNA, 2'-F pyrimidines) [SEQ 40]
B15
GCAGAGGAUAGCGAAGUCAUUGAGCGCCUAUGC (ssRNA, 2'-F pyrimidines) [SEQ 39]
GUGCACAUGGGAUAGCGAAGUCAUUGAGCGCCUAUGCGUGC (ssRNA, 2'-F pyrimidines) [SEQ 42]
B16
GCAGCAGAGGAUAGCGAAGUCAUUGAGCGCCUAUGCGUGC (ssRNA, 2'-F pyrimidines) [SEQ 38]
GGGGAUAGCGAAGUCAUUGAGCGCCCC (ssRNA, 2'-F pyrimidines) [SEQ 41]
GGUCUAGCCGGAGGAGUCAGUAAUCGGUAGACC (ssRNA, 2'-F pyrimidines) [SEQ 44]

target: T2, IL-17 (IL-17A); test: SPR; solution A, tRNA; conditions: tags: Peprotech; chain copies: 2
Description: as §1

Binding result, binds:
B1
B2
B4
B5
B6
B7
B8
B9
B10
B11
B12
B13
B14

— patent US20110177578, “APTAMER AGAINST IL-17 AND USE THEREOF” (The University of Tokyo, published 2011)
